B1: LINE1-full (parent)
chain: UACGUAGGUGGUUUUCCCCUGAUAGUGCUAAGGGGGCCUGGAAGUUUGGACUGGGCAGAGCUCAACACAGCGUGGCAAAGUGGCUGUGGCUAGACUGCCUCUCUGGAUUCCUCGUCACUCAGCAGGGCAUCUCUGAGAGAAAUGCC

Variants of: B1
Assay: self-cleavage, relative activity (ratio to wild type); higher = more cleavage; in vitro, sequencing; the parent is a self-cleaving ribozyme

Question: With G48A U100C as the variant, how does the self-cleavage read?
Answer: Its self-cleavage is 1.9.

Question: With A138G C146U as the variant, how does the self-cleavage read?
Answer: Its self-cleavage is 1.32.

Question: Which self-cleavage does the source give for A30G C118U here?
Answer: Its self-cleavage is 1.93.

Question: Which self-cleavage does the source give for U9C U130G here?
Answer: Its self-cleavage is 0.74.

Question: Which self-cleavage does the source give for A50U A140U here?
Answer: The self-cleavage was 0.92.

Question: With A77G G127U as the variant, how does the self-cleavage read?
Answer: The self-cleavage was 2.58.

Question: Which self-cleavage does the source give for U109C G125U here?
Answer: The self-cleavage was 1.27.

Question: With A30G A77G as the variant, how does the self-cleavage read?
Answer: Its self-cleavage is 2.12.

Question: Which self-cleavage does the source give for U12G U14A here?
Answer: Its self-cleavage is 0.44.

Question: For G122C U143C, which self-cleavage is on record?
Answer: The self-cleavage was 1.57.

Question: With U96A as the variant, how does the self-cleavage read?
Answer: Its self-cleavage is 0.07.

Question: Which self-cleavage does the source give for U47A C113U here?
Answer: Its self-cleavage is 1.17.

Question: Which self-cleavage does the source give for U73A U96A here?
Answer: The self-cleavage was 0.05.

Question: With A2G A65U as the variant, how does the self-cleavage read?
Answer: The self-cleavage was 0.66.

Question: With A24U C110A as the variant, how does the self-cleavage read?
Answer: The self-cleavage was 1.1.

Question: For G34U U47C, which self-cleavage is on record?
Answer: Its self-cleavage is 2.18.

Question: Which self-cleavage does the source give for C118U A124U here?
Answer: Its self-cleavage is 1.04.

Question: For U91C U143A, which self-cleavage is on record?
Answer: The self-cleavage was 0.72.

Question: For G54A U108C, which self-cleavage is on record?
Answer: Its self-cleavage is 0.89.

Question: With G21A A117U as the variant, how does the self-cleavage read?
Answer: The self-cleavage was 1.55.

Question: Which self-cleavage does the source give for U13C C113U here?
Answer: Its self-cleavage is 1.

Question: With A22U G72A as the variant, how does the self-cleavage read?
Answer: Its self-cleavage is 1.27.

Question: Which self-cleavage does the source give for G70A A138G here?
Answer: The self-cleavage was 0.21.

Question: For G97A U104A, which self-cleavage is on record?
Answer: The self-cleavage was 0.06.

Question: Which self-cleavage does the source give for G93U A107G here?
Answer: The self-cleavage was 0.06.

Question: For G55C A57U, which self-cleavage is on record?
Answer: The self-cleavage was 0.02.

Question: With A69C A78G as the variant, how does the self-cleavage read?
Answer: Its self-cleavage is 0.1.

Question: For U12G A77U, which self-cleavage is on record?
Answer: Its self-cleavage is 0.78.

Question: For U1C U29C, which self-cleavage is on record?
Answer: The self-cleavage was 1.1.

Question: Which self-cleavage does the source give for G55A U85C here?
Answer: The self-cleavage was 0.06.

Question: For U100A U112C, which self-cleavage is on record?
Answer: Its self-cleavage is 1.09.

Question: With U100A U112A as the variant, how does the self-cleavage read?
Answer: Its self-cleavage is 0.91.

Question: Which self-cleavage does the source give for G33U G75A here?
Answer: The self-cleavage was 0.78.

Question: Which self-cleavage does the source give for G27A G34A here?
Answer: Its self-cleavage is 0.64.

Question: For U23C U119A, which self-cleavage is on record?
Answer: The self-cleavage was 1.17.

Question: With G35A A138G as the variant, how does the self-cleavage read?
Answer: Its self-cleavage is 1.22.

Question: For U15C C51U, which self-cleavage is on record?
Answer: Its self-cleavage is 1.26.

Question: For A42U U109C, which self-cleavage is on record?
Answer: Its self-cleavage is 0.71.

Question: With U12C A78U as the variant, how does the self-cleavage read?
Answer: Its self-cleavage is 1.52.

Question: Which self-cleavage does the source give for A22G U81A here?
Answer: The self-cleavage was 1.67.

Question: For G27A A138C, which self-cleavage is on record?
Answer: The self-cleavage was 1.18.

Question: With U9A A24G as the variant, how does the self-cleavage read?
Answer: Its self-cleavage is 0.93.

Question: With U15G U29C as the variant, how does the self-cleavage read?
Answer: Its self-cleavage is 1.05.

Question: Which self-cleavage does the source give for U46C A136G here?
Answer: Its self-cleavage is 1.21.

Question: With G11A A124G as the variant, how does the self-cleavage read?
Answer: The self-cleavage was 0.85.

Question: Which self-cleavage does the source give for G55C U73A here?
Answer: Its self-cleavage is 0.07.

Question: Which self-cleavage does the source give for U52A A69G here?
Answer: Its self-cleavage is 0.71.

Question: With U5A A6G as the variant, how does the self-cleavage read?
Answer: The self-cleavage was 2.12.

Question: Which self-cleavage does the source give for A2G A124G here?
Answer: The self-cleavage was 0.74.

Question: Which self-cleavage does the source give for U13C U96A here?
Answer: Its self-cleavage is 0.11.

Question: Which self-cleavage does the source give for U1C C38U here?
Answer: Its self-cleavage is 0.71.

Question: Which self-cleavage does the source give for U91G C146U here?
Answer: The self-cleavage was 0.1.

Question: Which self-cleavage does the source give for A79G U91A here?
Answer: Its self-cleavage is 0.32.

Question: Which self-cleavage does the source give for U46A A121G here?
Answer: Its self-cleavage is 1.15.

Question: For U85A C120U, which self-cleavage is on record?
Answer: Its self-cleavage is 0.2.

Question: For A65U U143A, which self-cleavage is on record?
Answer: The self-cleavage was 0.06.

Question: Which self-cleavage does the source give for C113A here?
Answer: The self-cleavage was 1.01.

Question: Which self-cleavage does the source give for A43G C71U here?
Answer: Its self-cleavage is 0.15.

Question: With G27U U73C as the variant, how does the self-cleavage read?
Answer: The self-cleavage was 1.51.

Question: Which self-cleavage does the source give for U52C G72U here?
Answer: The self-cleavage was 0.41.

Question: For U87C G139A, which self-cleavage is on record?
Answer: The self-cleavage was 0.14.

Question: For U5C C19U, which self-cleavage is on record?
Answer: Its self-cleavage is 1.

Question: Which self-cleavage does the source give for A57U U91A here?
Answer: The self-cleavage was 0.07.

Question: For U52C U87A, which self-cleavage is on record?
Answer: The self-cleavage was 0.08.

Question: With U81C G114A as the variant, how does the self-cleavage read?
Answer: Its self-cleavage is 1.17.

Question: Which self-cleavage does the source give for U9C A138U here?
Answer: Its self-cleavage is 1.92.

Question: With U104C A138G as the variant, how does the self-cleavage read?
Answer: Its self-cleavage is 1.87.

Question: With A78G A140U as the variant, how does the self-cleavage read?
Answer: The self-cleavage was 1.38.

Question: With A57U A136G as the variant, how does the self-cleavage read?
Answer: The self-cleavage was 0.11.

Question: For U96A U112C, which self-cleavage is on record?
Answer: Its self-cleavage is 0.06.

Question: For G7U A94G, which self-cleavage is on record?
Answer: The self-cleavage was 0.36.

Question: For A24U U39A, which self-cleavage is on record?
Answer: Its self-cleavage is 0.84.

Question: With A42U U87A as the variant, how does the self-cleavage read?
Answer: The self-cleavage was 0.07.

Question: With A50G G55A as the variant, how does the self-cleavage read?
Answer: The self-cleavage was 0.15.

Question: For G34C G82A, which self-cleavage is on record?
Answer: Its self-cleavage is 2.16.

Question: With U15C C101G as the variant, how does the self-cleavage read?
Answer: The self-cleavage was 1.31.

Question: Which self-cleavage does the source give for A121U C146U here?
Answer: Its self-cleavage is 1.73.

Question: With U46G A65G as the variant, how does the self-cleavage read?
Answer: The self-cleavage was 0.05.

Question: With U73A A94G as the variant, how does the self-cleavage read?
Answer: The self-cleavage was 0.35.

Question: For A42G A69U, which self-cleavage is on record?
Answer: Its self-cleavage is 0.04.

Question: With U13G A30G as the variant, how does the self-cleavage read?
Answer: The self-cleavage was 1.27.

Question: With U96A A129U as the variant, how does the self-cleavage read?
Answer: Its self-cleavage is 0.07.

Question: With G72U A129G as the variant, how does the self-cleavage read?
Answer: Its self-cleavage is 1.08.

Question: Which self-cleavage does the source give for A31U C61A here?
Answer: The self-cleavage was 0.13.

From the RNAGym collection of RNA variant scans (doi:10.7554/elife.90254)
